Series [1] relates to HeLa Kyoto. The series can be described thus: solubility in G1/S (NP-40 vs SDS abundance) (log2 ratio); higher = more soluble. Conditions: cell cycle stage: G1/S.
Series [2] concerns HeLa Kyoto. The series can be described thus: melting temperature (median over replicates), in situ; higher = more thermally stable.
Series [3] concerns HeLa Kyoto. The series can be described thus: solubility change mitosis vs G1/S (difference of NP-40 vs SDS log2 ratios) (log2 ratio difference); higher = more soluble in mitosis.
Series [4] relates to HeLa Kyoto. The series can be described thus: thermal stability score vs G1/S (z-score of summed log2 fold changes over temperatures); higher = more thermally stable than in G1/S.
Where [5] appears, read: cell cycle stage: early G1 (4.5 h after nocodazole release).

Data on 6 sequences can be found in the supplement of paper PMC5998384.
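For melting temperature (median over replicates), in situ in this document: HeLa Kyoto cells synchronized by double thymidine or nocodazole block, proteins quantified by TMT10plex mass spectrometry, three independent biological replicates.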
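For solubility change mitosis vs G1/S (difference of NP-40 vs SDS log2 ratios) in this document: synchronized HeLa Kyoto cells (double thymidine block for G1/S, nocodazole release for mitosis), protein amounts in NP-40 versus SDS lysates quantified by mass spectrometry, three biological replicates.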
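For solubility in G1/S (NP-40 vs SDS abundance) in this document: HeLa Kyoto cells arrested at G1/S by double thymidine block, proteins quantified by TMT10plex mass spectrometry in mild NP-40 versus SDS extracts, three biological replicates.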
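For thermal stability score vs G1/S (z-score of summed log2 fold changes over temperatures) in this document: synchronized HeLa Kyoto cells, proteins quantified by TMT10plex mass spectrometry, three biological replicates, mitosis taken 0.5 h after nocodazole release, G1/S directly after double thymidine block.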

For the sequence “MALHSMRKARERWSFIRALHKGSAAAPALQKDSKKRVFSGIQPTGILHLGNYLGAIESWVRLQDEYDSVLYSIVDLHSITVPQDPAVLRQSILDMTAVLLACGINPEKSILFQQSQVSEHTQLSWILSCMVRLPRLQHLHQWKAKTTKQKHDGTVGLLTYPVLQAADILLYKSTHVPVGEDQVQHMELVQDLAQGFNKKYGEFFPVPESILTSMKKVKSLRDPSAKMSKSDPDKLATVRITDSPEEIVQKFRKAVTDFTSEVTYDPAGRAGVSNIVAVHAAVTGLSVEEVVRRSAGMNTARYKLAVADAVIEKFAPIKREIEKLKLDKDHLEKVLQIGSAKAKELAYTVCQEVKKLVGFL [WARS2]”, the “solubility in G1/S (log2)” value in the series with HeLa Kyoto [1] is 0.308. Besides, the melting temperature in the series on HeLa Kyoto [2] (cell cycle stage: G1/S) turned out to be 48.7 °C; in the series with HeLa Kyoto [2] (cell cycle stage: mitosis), 49.2 °C. In addition, the “solubility change mitosis (log2)” value in the series on HeLa Kyoto [3] was -0.0372. For the same sequence, the values for the thermal stability score in the series on HeLa Kyoto [4] (setting [5]) and in the series with HeLa Kyoto [4] (cell cycle stage: mitosis) were 0.66 and 0.794, respectively.

Regarding “MALPHDSNETSYLLPPNNEDWGRQTIPDFVYGQKDLMAEGIQWPRNAPGIPDALPQSPFDAALCSAWKQRVELGLFRYRLRELQTQILPGAVGFVAQLNVERGVQRRPPQTIKSVRQAFDPVQFNFNKIRPGEVLFRLHREPDLPGTLLQEDILVVINVSPLEWGHVLLVPEPARQLPQRLLPGALRAGIEAVLLSLHPGFRVGFNSLGGLASVNHLHLHGYYLAHRLPVEQAPSEPLDPGGHLHLLQDLPAPGFLFYTRGPGPDLESLISRVCRATDYLTDHEIAHNLFVTRGAPPGKTSPSSALTGVRVILWARKSSFGIKDGEAFNVALCELAGHLPVKTSQDFSSLTEAAAVALIQDCRLPPSQAEDVQAALVALMSQEEQ [GDPGP1]”, in the series with HeLa Kyoto [1], the “solubility in G1/S (log2)” value was 0.217. Besides, the figures for the melting temperature in the series on HeLa Kyoto [2] (cell cycle stage: G1/S) and in the series with HeLa Kyoto [2] (cell cycle stage: mitosis) were 52.5 °C and 51 °C, respectively. Also, in the series on HeLa Kyoto [3], the “solubility change mitosis (log2)” value is -0.107. The thermal stability score in the series on HeLa Kyoto [4] (setting [5]) is -0.152; in the series with HeLa Kyoto [4] (cell cycle stage: mitosis) it was -0.661.

Consider “MALQVELVPTGEIIRVVHPHRPCKLALGSDGVRVTMESALTARDRVGVQDFVLLENFTSEAAFIENLRRRFRENLIYTYIGPVLVSVNPYRDLQIYSRQHMERYRGVSFYEVPPHLFAVADTVYRALRTERRDQAVMISGESGAGKTEATKRLLQFYAETCPAPERGGAVRDRLLQSNPVLEAFGNAKTLRNDNSSRFGKYMDVQFDFKGAPVGGHILSYLLEKSRVVHQNHGERNFHIFYQLLEGGEEETLRRLGLERNPQSYLYLVKGQCAKVSSINDKSDWKVVRKALTVIDFTEDEVEDLLSIVASVLHLGNIHFAANEESNAQVTTENQLKYLTRLLSVEGSTLREALTHRKIIAKGEELLSPLNLEQAAYARDALAKAVYSRTFTWLVGKINRSLASKDVESPSWRSTTVLGLLDIYGFEVFQHNSFEQFCINYCNEKLQQLFIELTLKSEQEEYEAEGIAWEPVQYFNNKIICDLVEEKFKGIISILDEECLRPGEATDLTFLEKLEDTVKHHPHFLTHKLADQRTRKSLGRGEFRLLHYAGEVTYSVTGFLDKNNDLLFRNLKETMCSSKNPIMSQCFDRSELSDKKRPETVATQFKMSLLQLVEILQSKEPAYVRCIKPNDAKQPGRFDEVLIRHQVKYLGLLENLRVRRAGFAYRRKYEAFLQRYKSLCPETWPTWAGRPQDGVAVLVRHLGYKPEEYKMGRTKIFIRFPKTLFATEDALEVRRQSLATKIQAAWRGFHWRQKFLRVKRSAICIQSWWRGTLGRRKAAKRKWAAQTIRRLIRGFVLRHAPRCPENAFFLDHVRTSFLLNLRRQLPQNVLDTSWPTPPPALREASELLRELCIKNMVWKYCRSISPEWKQQLQQKAVASEIFKGKKDNYPQSVPRLFISTRLGTDEISPRVLQALGSEPIQYAVPVVKYDRKGYKPRSRQLLLTPNAVVIVEDAKVKQRIDYANLTGISVSSLSDSLFVLHVQRADNKQKGDVVLQSDHVIETLTKTALSANRVNSININQGSITFAGGPGRDGTIDFTPGSELLITKAKNGHLAVVAPRLNSR [MYO1C]”, for which the “solubility in G1/S (log2)” value in the series with HeLa Kyoto [1] is -0.972. Moreover, the values for the melting temperature in the series with HeLa Kyoto [2] (cell cycle stage: G1/S) and in the series on HeLa Kyoto [2] (cell cycle stage: mitosis) were 50.1 °C and 50.2 °C, respectively. Besides, the “solubility change mitosis (log2)” value in the series on HeLa Kyoto [3] was -0.0879. Besides, the thermal stability score with HeLa Kyoto [4] (setting [5]) is -1.1; in the series on HeLa Kyoto [4] (cell cycle stage: mitosis) it was 3.69.

For the sequence “MALRACGLIIFRRCLIPKVDNNAIEFLLLQASDGIHHWTPPKGHVEPGEDDLETALRETQEEAGIEAGQLTIIEGFKRELNYVARNKPKTVIYWLAEVKDYDVEIRLSHEHQAYRWLGLEEACQLAQFKEMKAALQEGHQFLCSIEA [NUDT2]”, the “solubility in G1/S (log2)” value in the series on HeLa Kyoto [1] was -0.102. Also, the melting temperature in the series on HeLa Kyoto [2] (cell cycle stage: G1/S) came to 51.7 °C; in the series on HeLa Kyoto [2] (cell cycle stage: mitosis), 51.9 °C. In the series with HeLa Kyoto [3], the “solubility change mitosis (log2)” value is 0.0921. For the same sequence, the thermal stability score is -0.841 in the series on HeLa Kyoto [4] (setting [5]) and -1.24 with HeLa Kyoto [4] (cell cycle stage: mitosis).

In the case of “MALSAQQIPRWFNSVKLRSLINAAQLTKRFTRPARTLLHGFSAQPQISSDNCFLQWGFKTYRTSSLWNSSQSTSSSSQENNSAQSSLLPSMNEQSQKTQNISSFDSELFLEELDELPPLSPMQPISEEEAIQIIADPPLPPASFTLRDYVDHSETLQKLVLLGVDLSKIEKHPEAANLLLRLDFEKDIKQMLLFLKDVGIEDNQLGAFLTKNHAIFSEDLENLKTRVAYLHSKNFSKADVAQMVRKAPFLLNFSVERLDNRLGFFQKELELSVKKTRDLVVRLPRLLTGSLEPVKENMKVYRLELGFKHNEIQHMITRIPKMLTANKMKLTETFDFVHNVMSIPHHIIVKFPQVFNTRLFKVKERHLFLTYLGRAQYDPAKPNYISLDKLVSIPDEIFCEEIAKASVQDFEKFLKTL [MTERF3]”, the “solubility in G1/S (log2)” value in the series with HeLa Kyoto [1] turned out to be 0.238. For the same sequence, the melting temperature in the series with HeLa Kyoto [2] (cell cycle stage: G1/S) is 49.7 °C; in the series on HeLa Kyoto [2] (cell cycle stage: mitosis), 50.3 °C. Further, in the series on HeLa Kyoto [3], the “solubility change mitosis (log2)” value is -0.167. The thermal stability score was -0.741 with HeLa Kyoto [4] (setting [5]) and 0.517 with HeLa Kyoto [4] (cell cycle stage: mitosis).

On to “MALWRGSAYAGFLALAVGCVFLLEPELPGSALRSLWSSLCLGPAPAPPGPVSPEGRLAAAWDALIVRPVRRWRRVAVGVNACVDVVLSGVKLLQALGLSPGNGKDHSILHSRNDLEEAFIHFMGKGAAAERFFSDKETFHDIAQVASEFPGAQHYVGGNAALIGQKFAANSDLKVLLCGPVGPKLHELLDDNVFVPPESLQEVDEFHLILEYQAGEEWGQLKAPHANRFIFSHDLSNGAMNMLEVFVSSLEEFQPDLVVLSGLHMMEGQSKELQRKRLLEVVTSISDIPTGIPVHLELASMTNRELMSSIVHQQVFPAVTSLGLNEQELLFLTQSASGPHSSLSSWNGVPDVGMVSDILFWILKEHGRSKSRASDLTRIHFHTLVYHILATVDGHWANQLAAVAAGARVAGTQACATETIDTSRVSLRAPQEFMTSHSEAGSRIVLNPNKPVVEWHREGISFHFTPVLVCKDPIRTVGLGDAISAEGLFYSEVHPHY [ADPGK]”, for which the “solubility in G1/S (log2)” value with HeLa Kyoto [1] is -0.0136. The values for the melting temperature with HeLa Kyoto [2] (cell cycle stage: G1/S) and with HeLa Kyoto [2] (cell cycle stage: mitosis) were 55.3 °C and 55.4 °C, respectively. For the same sequence, the “solubility change mitosis (log2)” value with HeLa Kyoto [3] is -0.191. The thermal stability score is 1.05 with HeLa Kyoto [4] (setting [5]) and -1.45 in the series with HeLa Kyoto [4] (cell cycle stage: mitosis).
